# Measured values reported in article PMC3283708.
# Biological target: rat cardiac ryanodine receptor (RyR2) (rat (endogenous in rat ventricular myocytes)) (UniProt B0LPN4)
# UniProt B0LPN4, sequence (B0LPN4 whole entry): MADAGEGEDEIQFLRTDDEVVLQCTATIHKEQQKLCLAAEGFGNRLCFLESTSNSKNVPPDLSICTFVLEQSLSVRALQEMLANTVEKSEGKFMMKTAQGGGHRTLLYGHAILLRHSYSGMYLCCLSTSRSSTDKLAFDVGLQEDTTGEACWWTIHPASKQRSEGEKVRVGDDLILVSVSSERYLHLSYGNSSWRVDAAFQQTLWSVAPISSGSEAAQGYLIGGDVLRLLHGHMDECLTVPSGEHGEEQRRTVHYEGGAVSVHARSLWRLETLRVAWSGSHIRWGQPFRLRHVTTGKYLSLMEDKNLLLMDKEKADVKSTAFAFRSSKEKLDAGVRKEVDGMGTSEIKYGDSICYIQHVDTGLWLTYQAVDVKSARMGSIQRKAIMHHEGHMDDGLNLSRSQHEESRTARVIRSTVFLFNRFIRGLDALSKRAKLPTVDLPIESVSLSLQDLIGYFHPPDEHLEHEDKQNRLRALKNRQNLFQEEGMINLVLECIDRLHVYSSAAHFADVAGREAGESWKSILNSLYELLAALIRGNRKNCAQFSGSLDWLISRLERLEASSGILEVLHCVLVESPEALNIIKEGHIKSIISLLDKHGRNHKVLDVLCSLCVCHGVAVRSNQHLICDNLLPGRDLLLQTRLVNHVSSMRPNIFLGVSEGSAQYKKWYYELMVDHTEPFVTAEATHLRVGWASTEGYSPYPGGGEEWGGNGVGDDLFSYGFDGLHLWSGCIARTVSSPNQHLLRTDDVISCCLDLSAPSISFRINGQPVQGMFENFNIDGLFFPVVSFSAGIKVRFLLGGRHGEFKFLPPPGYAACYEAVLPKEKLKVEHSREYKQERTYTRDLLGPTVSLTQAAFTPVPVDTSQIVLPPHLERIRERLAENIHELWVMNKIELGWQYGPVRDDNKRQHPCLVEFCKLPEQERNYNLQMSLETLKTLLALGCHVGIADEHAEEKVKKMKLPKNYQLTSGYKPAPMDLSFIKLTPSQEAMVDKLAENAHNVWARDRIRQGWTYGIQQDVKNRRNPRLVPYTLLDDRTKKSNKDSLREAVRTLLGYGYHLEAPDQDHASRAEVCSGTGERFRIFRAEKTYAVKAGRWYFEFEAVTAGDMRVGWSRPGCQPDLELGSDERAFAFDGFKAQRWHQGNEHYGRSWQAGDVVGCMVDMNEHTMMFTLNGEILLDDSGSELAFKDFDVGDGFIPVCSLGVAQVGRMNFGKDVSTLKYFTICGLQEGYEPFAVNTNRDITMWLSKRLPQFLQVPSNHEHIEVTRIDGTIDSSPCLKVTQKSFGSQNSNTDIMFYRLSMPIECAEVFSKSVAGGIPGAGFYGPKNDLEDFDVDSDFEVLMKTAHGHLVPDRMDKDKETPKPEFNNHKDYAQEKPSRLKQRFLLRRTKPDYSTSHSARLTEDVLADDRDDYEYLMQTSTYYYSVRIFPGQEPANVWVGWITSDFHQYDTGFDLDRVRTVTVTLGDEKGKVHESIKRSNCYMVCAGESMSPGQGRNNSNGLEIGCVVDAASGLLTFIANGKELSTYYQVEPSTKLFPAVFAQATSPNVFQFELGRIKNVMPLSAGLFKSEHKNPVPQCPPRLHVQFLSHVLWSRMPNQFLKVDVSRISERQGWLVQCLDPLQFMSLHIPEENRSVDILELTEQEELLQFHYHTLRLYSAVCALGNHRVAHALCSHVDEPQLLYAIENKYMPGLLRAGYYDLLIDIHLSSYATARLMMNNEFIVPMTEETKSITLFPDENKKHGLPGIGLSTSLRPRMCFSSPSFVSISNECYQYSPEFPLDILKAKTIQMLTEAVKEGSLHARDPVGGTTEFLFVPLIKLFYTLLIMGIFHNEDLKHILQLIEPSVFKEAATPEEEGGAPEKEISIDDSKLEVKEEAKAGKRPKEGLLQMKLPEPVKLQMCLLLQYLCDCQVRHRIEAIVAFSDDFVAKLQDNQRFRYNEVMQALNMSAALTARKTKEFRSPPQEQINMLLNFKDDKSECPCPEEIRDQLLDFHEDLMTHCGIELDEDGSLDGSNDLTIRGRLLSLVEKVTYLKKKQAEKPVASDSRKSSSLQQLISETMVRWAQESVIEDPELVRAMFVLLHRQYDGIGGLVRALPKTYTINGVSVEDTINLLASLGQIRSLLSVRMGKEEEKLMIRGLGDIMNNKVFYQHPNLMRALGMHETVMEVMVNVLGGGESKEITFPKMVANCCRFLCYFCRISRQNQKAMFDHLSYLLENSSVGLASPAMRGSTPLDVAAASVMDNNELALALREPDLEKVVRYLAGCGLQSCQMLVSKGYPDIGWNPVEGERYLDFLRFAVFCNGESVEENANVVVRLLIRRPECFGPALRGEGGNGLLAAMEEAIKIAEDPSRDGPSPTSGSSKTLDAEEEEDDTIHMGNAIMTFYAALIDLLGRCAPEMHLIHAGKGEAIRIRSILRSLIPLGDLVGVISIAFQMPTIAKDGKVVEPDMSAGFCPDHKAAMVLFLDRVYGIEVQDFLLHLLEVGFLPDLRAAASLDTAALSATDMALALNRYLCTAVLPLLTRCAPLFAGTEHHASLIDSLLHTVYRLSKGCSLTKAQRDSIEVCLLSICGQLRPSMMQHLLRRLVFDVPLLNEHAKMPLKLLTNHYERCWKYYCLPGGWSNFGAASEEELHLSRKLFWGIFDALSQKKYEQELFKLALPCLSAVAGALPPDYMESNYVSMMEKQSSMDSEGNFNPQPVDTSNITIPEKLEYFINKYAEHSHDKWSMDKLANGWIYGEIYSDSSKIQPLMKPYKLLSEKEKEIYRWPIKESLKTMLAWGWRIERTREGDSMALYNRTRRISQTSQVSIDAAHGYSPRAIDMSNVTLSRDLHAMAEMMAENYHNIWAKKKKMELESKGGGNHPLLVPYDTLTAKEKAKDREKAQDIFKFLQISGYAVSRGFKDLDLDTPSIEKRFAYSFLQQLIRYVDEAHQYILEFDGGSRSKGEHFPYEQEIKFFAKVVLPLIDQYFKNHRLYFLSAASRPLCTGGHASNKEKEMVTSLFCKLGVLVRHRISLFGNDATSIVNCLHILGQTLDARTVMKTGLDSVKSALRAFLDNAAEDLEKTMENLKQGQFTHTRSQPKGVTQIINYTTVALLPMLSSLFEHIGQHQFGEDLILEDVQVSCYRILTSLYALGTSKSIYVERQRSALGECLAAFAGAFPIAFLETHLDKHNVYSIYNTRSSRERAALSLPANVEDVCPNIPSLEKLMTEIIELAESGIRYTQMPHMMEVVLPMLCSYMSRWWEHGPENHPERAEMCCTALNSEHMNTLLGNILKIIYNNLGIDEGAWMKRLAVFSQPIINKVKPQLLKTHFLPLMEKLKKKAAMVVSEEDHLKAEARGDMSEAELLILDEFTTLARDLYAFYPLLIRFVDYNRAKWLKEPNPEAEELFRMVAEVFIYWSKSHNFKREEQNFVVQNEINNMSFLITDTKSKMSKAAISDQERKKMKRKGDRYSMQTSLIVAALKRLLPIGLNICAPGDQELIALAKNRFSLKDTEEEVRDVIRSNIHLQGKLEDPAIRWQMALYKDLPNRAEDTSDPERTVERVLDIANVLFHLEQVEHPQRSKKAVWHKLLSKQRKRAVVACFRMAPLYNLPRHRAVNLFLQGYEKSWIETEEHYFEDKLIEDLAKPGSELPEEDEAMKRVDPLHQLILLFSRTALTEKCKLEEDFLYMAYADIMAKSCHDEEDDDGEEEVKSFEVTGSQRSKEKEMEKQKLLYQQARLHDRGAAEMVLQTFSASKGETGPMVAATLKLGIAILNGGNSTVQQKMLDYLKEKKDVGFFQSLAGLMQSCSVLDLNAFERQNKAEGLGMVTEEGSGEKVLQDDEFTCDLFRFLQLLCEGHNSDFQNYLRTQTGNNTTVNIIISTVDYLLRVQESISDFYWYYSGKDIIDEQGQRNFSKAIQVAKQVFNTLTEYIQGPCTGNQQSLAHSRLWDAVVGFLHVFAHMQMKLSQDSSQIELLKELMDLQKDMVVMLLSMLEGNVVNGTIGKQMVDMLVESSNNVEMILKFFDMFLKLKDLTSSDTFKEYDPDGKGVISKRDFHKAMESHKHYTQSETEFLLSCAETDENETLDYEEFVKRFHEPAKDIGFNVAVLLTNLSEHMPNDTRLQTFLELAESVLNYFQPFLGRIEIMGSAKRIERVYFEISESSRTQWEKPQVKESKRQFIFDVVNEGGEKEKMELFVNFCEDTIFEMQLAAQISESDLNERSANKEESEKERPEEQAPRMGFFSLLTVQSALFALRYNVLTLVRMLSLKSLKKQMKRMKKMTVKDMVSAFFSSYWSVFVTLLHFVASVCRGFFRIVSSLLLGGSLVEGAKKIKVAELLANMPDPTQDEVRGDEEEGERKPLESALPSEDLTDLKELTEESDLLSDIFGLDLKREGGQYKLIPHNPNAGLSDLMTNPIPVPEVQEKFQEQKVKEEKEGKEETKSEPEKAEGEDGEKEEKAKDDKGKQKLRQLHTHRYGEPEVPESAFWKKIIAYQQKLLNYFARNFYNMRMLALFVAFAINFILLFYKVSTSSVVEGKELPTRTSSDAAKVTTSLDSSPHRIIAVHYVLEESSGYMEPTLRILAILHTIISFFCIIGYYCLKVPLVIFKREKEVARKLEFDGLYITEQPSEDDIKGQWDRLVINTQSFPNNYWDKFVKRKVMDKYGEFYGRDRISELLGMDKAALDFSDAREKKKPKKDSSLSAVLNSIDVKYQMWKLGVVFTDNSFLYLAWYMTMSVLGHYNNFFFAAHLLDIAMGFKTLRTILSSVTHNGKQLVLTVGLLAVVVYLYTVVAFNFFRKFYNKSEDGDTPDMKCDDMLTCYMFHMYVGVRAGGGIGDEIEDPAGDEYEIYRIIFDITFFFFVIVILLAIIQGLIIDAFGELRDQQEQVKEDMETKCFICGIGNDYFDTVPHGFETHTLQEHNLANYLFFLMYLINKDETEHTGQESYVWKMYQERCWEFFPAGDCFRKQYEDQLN
# FKBP12, sequence (P62942 whole entry): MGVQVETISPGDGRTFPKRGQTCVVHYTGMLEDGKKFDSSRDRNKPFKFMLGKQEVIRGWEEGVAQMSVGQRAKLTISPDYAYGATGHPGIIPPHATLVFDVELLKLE
substance,measurement,value
FKBP12 (from UniProt P62942 1-108) (natural protein),percent increase in the frequency of spontaneous Ca^2+ waves in permeabilised rat cardiac myocytes with 3 µM FKBP12,50%
same,"percent increase in the frequency of spontaneous Ca^2+ waves in permeabilised rat cardiac myocytes with 3 µM FKBP12, after pre-incubation with and in the continued presence of 200 nM FKBP12.6",16.2%
